Test results published in patent US20030044400A1, “Composition and method for treating cells” (priority 2001, published 2003).

What was measured:
all the cell lines = test: Zn or Ba alone on the cell lines; type: cell-based; details: all concentrations tested (up to 66 uM)
Procedure: (§1) Fetuin purified by modified Spiro method was further incubated with Zinc Acetate or Barium Acetate (0.25M) at room temperature for 1 hr. Free ions were removed by repetitive concentration against 20 volumes of PBS three times. Fetuin, Zn-charged fetuin and Ba-charged fetuin (5 uM) and PBS were then separately incubated with LNCaP cells for 4 hr. Percent of cells under apoptosis was determined by Hoechst staining and confirmed by MTS assay. Each data represents the average of two assays. Zn-charged or Ba-charged fetuin may contain free Zn or Ba (about 30 uM). However, all the cell lines are not affected by Zn or Ba alone at all concentrations tested (up to 66 uM).

LNCaP cells = test: Fetuin-induced apoptosis, Hoechst staining confirmed by MTS assay; type: cell-based, Human; details: for apoptosis-inducing activity in LNCaP cells: fetal vs mature fetuins at the same concentration
Procedure: The purified fetuin was tested on various cancer cell lines. […] The DNA condensation and breakage of nuclei which are the characteristics for apoptosis were observed by staining the cell with Hoechst dye at 0.1 ug/ml.
as §1
Various concentrations of Zn-charged fetuin prepared as described were incubated with cell lines for 6 hr. Percent of cell under apoptosis was determined by Hoechst staining and confirmed by MTS assay. The concentration of Zn-charged fetuin for the induction of 50% of cells under apoptosis (LD50) was determined. Each data represents the average of three assays.

CC(=O)[O-].CC(=O)[O-].[Zn+2] [Zn]
effect of free ion alone on the cell lines (all the cell lines): not affected

CC(=O)[O-].CC(=O)[O-].[Ba+2] [Ba]
effect of free ion alone on the cell lines (all the cell lines): not affected

B1: human fetuin: human fetuin (Alpha 2-HS glycoprotein) isolated from adult human serum (protein, UniProt P02765 19-300; P02765 341-367, looked up)
Alpha-2-HS-glycoprotein chain … 1: APHGPGLIYRQPNCDDPETEEAALVAIDYINQNLPWGYKHTLNQIDEVKVWPQQPSGELFEIEIDTLETTCHVLDPTPVARCSVRQLKEHAVEGDCDFQLLKLDGKFSVVYAKCDSSPDSAEDVRKVCQDCPLLAPLNDTRVVHAAKAALAAFNAQNNGSNFQLEEISRAQLVPLPPSTYVEFTVSGTDCVAKEATEAAKCNLLAEKQYGFCKATLSEKLGGAEVAVTCMVFQTQPVSSQPQPEGANEAVPTPVVDPDAPPSPPLGAPGLPPAGSPPDSHVL
Alpha-2-HS-glycoprotein chain … 2: TVVQPSVGAAAGPVVPPCPGRIRHFKV
apoptosis-inducing activity in LNCaP cells (LNCaP cells): fails to induce apoptosis

B2: commercial fetuin: commercial fetuin purchased from Sigma, prepared by the Pederson Method (protein, UniProt P12763 19-359, looked up)
Alpha-2-HS-glycoprotein: IPLDPVAGYKEPACDDPDTEQAALAAVDYINKHLPRGYKHTLNQIDSVKVWPRRPTGEVYDIEIDTLETTCHVLDPTPLANCSVRQQTQHAVEGDCDIHVLKQDGQFSVLFTKCDSSPDSAEDVRKLCPDCPLLAPLNDSRVVHAVEVALATFNAESNGSYLQLVEISRAQFVPLPVSVSVEFAVAATDCIAKEVVDPTKCNLLAEKQYGFCKGSVIQKALGGEDVRVTCTLFQTQPVIPQPQPDGAEAEAPSAVPDAAGPTPSAAGPPVASVVVGPSVVAVPLPLHRAHYDLRHTFSGVASVESSSGEAFHVGKTPIVGQPSIPGGPVRLCPGRIRYFKI
apoptotic activity by method of preparation (LNCaP cells; Pederson Method (Sigma) vs modified Spiro method): did not show apoptotic activity

B3: mature fetuin: fetuin isolated from mature bovine serum (protein, UniProt P12763 19-359, looked up)
Alpha-2-HS-glycoprotein: IPLDPVAGYKEPACDDPDTEQAALAAVDYINKHLPRGYKHTLNQIDSVKVWPRRPTGEVYDIEIDTLETTCHVLDPTPLANCSVRQQTQHAVEGDCDIHVLKQDGQFSVLFTKCDSSPDSAEDVRKLCPDCPLLAPLNDSRVVHAVEVALATFNAESNGSYLQLVEISRAQFVPLPVSVSVEFAVAATDCIAKEVVDPTKCNLLAEKQYGFCKGSVIQKALGGEDVRVTCTLFQTQPVIPQPQPDGAEAEAPSAVPDAAGPTPSAAGPPVASVVVGPSVVAVPLPLHRAHYDLRHTFSGVASVESSSGEAFHVGKTPIVGQPSIPGGPVRLCPGRIRYFKI
apoptosis-inducing activity in LNCaP cells (LNCaP cells): no activity inducing apoptosis
